# Measurements: patent US20230203156A1, “ANTI-MDR1 ANTIBODIES AND USES THEREOF” (KENJOCKETY BIOTECHNOLOGY, INC., priority 2020, published 2023)
# Entries after “also recorded” stand apart in the source; their conditions may differ.
# Legend:
# [1] = molecular target: T1, human MDR1 (Homo sapiens, UniProt P08183); assay: Antibody binding/titration to 293T cells overexpressing human MDR1 (FACS); conditions: 293T cell line overexpressing human MDR1
# T1 construct: expressed in transfected cells
# Description: Antibody binding to cells was evaluated by flow cytometry. 293T cells stably transfected to express human ABCB1 (293T_KPB1_OX) were washed once in flow cytometry buffer (PBS + 2% FBS + 0.02% sodium azide), resuspended at 2 x 10 \^6 cells/mL in flow cytometry buffer, and dispensed into 96-well microtiter plates at 0.1 mL/well. In the figures, “B1” refers to ABCB1 (also known as MDR1 or Pgp). Recombinant antibodies were added to cells at 5 ug/mL for initial binding confirmation, or serially diluted from 100 ug/mL in flow cytometry buffer. After incubating cells on ice for 30 min, cells were washed twice with flow cytometry buffer. Bound antibody was detected with PE-labeled F(ab′)2 fragment goat anti-human IgG (Jackson ImmunoResearch) and evaluated on an Attune NxT flow cytometer.
# Binding titration of recombinant antibodies to ABCB1 transfectants was performed by 3-fold serial dilution of antibodies from 666.7 nM. Diluted antibody in flow cytometry buffer was incubated with cells on ice for 30 min. After 2 washes with flow cytometry buffer, bound antibody was detected with PE-labeled F(ab′)2 fragment goat anti-human IgG (Jackson ImmunoResearch) diluted 1:200 in flow cytometry buffer and incubated with cells for 20 min on ice. After 2 washes with flow cytometry buffer fluorescence was measured on an Attune NxT flow cytometer. Data were analyzed with GraphPad Prism 8.0 software to determine EC50′s.
# (§1) Anti-MDR1 mAb B1.129 and a humanized version thereof were assessed for binding to 293T cell line overexpressing human MDR1 or to 293T cells transfected with cynomolgus MDR1. […] B1.129.hz1 and B1.129.hz2 antibodies are the same as the humanized versions B1.129.huH1-huL1(KV3) and B1.129.huH1-huL1(KV1), respectively, listed in Table 2. FIG. 10C summarizes the binding data for the B1.129 antibody.
# [2] = molecular target: T2, human MDR1 extracellular loops 1 and 4 (ECD1, ECD4) (Homo sapiens, UniProt P08183); assay: Epitope mapping with mutant human MDR1 expressed on 293T cells (flow cytometry); assay type: binding; conditions: extracellular loop 1 and extracellular loop 4
# T2 construct: FLAG (C); expressed in transfected cells; host or cells: 293T
# Text: (§2) To determine binding of anti-MDR1 mAbs listed in Table 2 to the two major extracellular loops 1 and 4 of MDR1, various mutations were constructed to alter or substitute these two loops. To examine binding to cynomolgus extracellular loops, the extracellular loop 1 and/or loop 4 of cynomolgus MDR1 were grafted (with a C-terminal FLAG tag) to substitute for the human loops in the human MDR1 using standard techniques. To examine binding dependence on the normal human loops, MDR1 variants with deletion 79-102 and deletion 82-99 in loop 1 were also generated. Loop 1 is also referred to as ECD1. Loop 4 is also referred to as ECD4. These mutant MDR1 efflux pump variants were expressed on 293T cells using standard methods to generate cells that could be used to distinguish binding of various anti-MDR1 mAbs. The different cells were incubated with different anti-MDR1 mAbs for about 1 hour at 4° C. The cells were washed twice with FACS buffer (PBS containing 0.5% BSA). Alexa647 labeled goat anti-human antibody was added as a secondary antibody, and the samples were incubated on ice for another 1 hour. Samples were washed again and analyzed by flow cytometry.
# (§3) FIG. 9 summarizes the findings from preliminary epitope mapping using mutant human MDR1. […] For example, anti-MDR1 mAb B1.129 requires ECD1 and ECD4 for binding to human MDR1. All of the anti-MDR1 antibodies contact ECD4. […] ECD1 refers to the first extracellular domain of human ABCB1, ECD4 refers to the fourth extracellular domain of human ABCB1 and “others” refers to the remainder of the extracellular domains 2-3 and 5-6 of human ABCB1. Only binding to ECD1 and ECD4 was tested.
# [3] = tested on: human MDR1 extracellular loops 1 and 4 (ECD1, ECD4); assay: as above; assay type: binding; conditions: mutant versus WT human ABCB1; preliminary epitope mapping
# Text: as §2, §3
# [4] = tested on: cynomolgus MDR1; assay: Antibody binding to 293T cells transfected with cynomolgus MDR1
# Description: as §1
# Anti-MDR1 mAb B1.28 and a humanized version thereof were assessed for binding to 293T cell line overexpressing human MDR1 or to 293T cells transfected with cynomolgus MDR1.
# [5] = molecular target: T1, human MDR1; assay: Efflux blockade of MDR1 fluorescent substrates (flow cytometry); assay type: cell-based
# Description: HEK 293T cells expressing human MDR1 or MES-SA/DX5 cells expressing human MDR1 were washed several times and aliquoted into 96-well plates as 50 µl aliquots/well at a cell density of 1 x 10e6 cells per ml in phenol red-free DMEM. Cells were mixed with 300 nM to 1 nM antibodies and incubated for 1 h at 37° C. To determine efflux blockade cells were incubated in the presence of B1 fluorescent substrates as follows: 0.6 µM Rhodamine; 5 µM […] (DiOC2(3)) or 0.6 µM Calcein AM for 1.5 h at 37° C. The cells were then washed twice and finally resuspended in […] PBS. Rhodamine, DiOC2(3) or Calcein AM fluorescence were measured by flow cytometry.
# Effect of anti-MDR1 antibodies on efflux of MDR1 substrates Calcein, DIOC2, and Rhodamine was assessed as described in efflux blockade experimental procedure.
# [6] = tested on: MES-SA DX5 uterine sarcoma; assay: MES-SA DX5 drug-resistant uterine sarcoma model in nude mice; assay type: in vivo; conditions: for tumor volume / tumor growth, single agent / tumor volume / tumor growth, in combination with paclitaxel: MES-SA DX5, nude mice; for tumor volume / tumor growth, single agent: antibody as a single agent; for tumor volume / tumor growth, in combination with paclitaxel: antibody plus paclitaxel
# Description: (§4) Anti-ABCB1 antibodies B1.129, B1.261, B1.223, B1.225, B1.188, B1.28, and B1.226 were tested for effect on growth of tumors in immunodeficient mice. The following cancer cell lines were used for generating tumor models.
# MES-SA DX5: The multi drug-resistant cell line MES-SA/Dx5 (Sigma. 95051031) was derived from the human uterine sarcoma cell line MES-SA (Sigma Catalogue number. 95051030) which was originally obtained from a tumour from a person at the time of hysterectomy. […] Cross resistance to bleomycin, cisplatin, carmustine, 5-fluorouracil or methotrexate was not observed.
# Nude mice were implanted with MES-SA DX5 cells to model uterine sarcoma. Anti-B1 monoclonal antibodies are efficacious in MES-SA DX5 uterine sarcoma model in nude mice.
# [7] = tested on: A2780 ADR ovarian carcinoma; assay: A2780 ADR drug-resistant ovarian carcinoma model in nude mice; assay type: in vivo; conditions: for tumor volume, single agent: antibody as a single agent; for tumor volume, in combination with paclitaxel: antibody plus paclitaxel
# Description: as §4
# A2780 ADR: The adriamycin-resistant cell line A2780ADR has been developed by exposure of the parent A2780 cell line (Sigma catalogue no. 93112519) to adriamycin. A2780ADR is cross-resistant to melphalan and vinblastine. To retain resistance adriamycin has to be added to the media. The cells grow as a monolayer and in suspension in spinner cultures and are tumorigenic in immune deficient mice. Together with the cisplatin-resistant variant A2780cis these lines only differ in their exposure to a single drug and should facilitate the search for molecular changes responsible for the expression of pleiotropic drug resistance in human ovarian cancer.
# Nude mice were implanted with A2780 ADR cells to model ovarian carcinoma. Anti-B1 monoclonal antibodies are efficacious in A2780 ADR ovarian carcinoma model in nude mice.
# [8] = tested on: MES-SA DX5 uterine sarcoma; assay: MES-SA DX5 uterine sarcoma model in NSG mice; assay type: in vivo
# Text: NSG mice were implanted with MES-SA DX5 cells to model uterine sarcoma. Anti-B1 monoclonal antibodies are efficacious in MES-SA DX5 uterine sarcoma model in NSG mice.
# Sequence of cynomolgus MDR1 (as listed by the source): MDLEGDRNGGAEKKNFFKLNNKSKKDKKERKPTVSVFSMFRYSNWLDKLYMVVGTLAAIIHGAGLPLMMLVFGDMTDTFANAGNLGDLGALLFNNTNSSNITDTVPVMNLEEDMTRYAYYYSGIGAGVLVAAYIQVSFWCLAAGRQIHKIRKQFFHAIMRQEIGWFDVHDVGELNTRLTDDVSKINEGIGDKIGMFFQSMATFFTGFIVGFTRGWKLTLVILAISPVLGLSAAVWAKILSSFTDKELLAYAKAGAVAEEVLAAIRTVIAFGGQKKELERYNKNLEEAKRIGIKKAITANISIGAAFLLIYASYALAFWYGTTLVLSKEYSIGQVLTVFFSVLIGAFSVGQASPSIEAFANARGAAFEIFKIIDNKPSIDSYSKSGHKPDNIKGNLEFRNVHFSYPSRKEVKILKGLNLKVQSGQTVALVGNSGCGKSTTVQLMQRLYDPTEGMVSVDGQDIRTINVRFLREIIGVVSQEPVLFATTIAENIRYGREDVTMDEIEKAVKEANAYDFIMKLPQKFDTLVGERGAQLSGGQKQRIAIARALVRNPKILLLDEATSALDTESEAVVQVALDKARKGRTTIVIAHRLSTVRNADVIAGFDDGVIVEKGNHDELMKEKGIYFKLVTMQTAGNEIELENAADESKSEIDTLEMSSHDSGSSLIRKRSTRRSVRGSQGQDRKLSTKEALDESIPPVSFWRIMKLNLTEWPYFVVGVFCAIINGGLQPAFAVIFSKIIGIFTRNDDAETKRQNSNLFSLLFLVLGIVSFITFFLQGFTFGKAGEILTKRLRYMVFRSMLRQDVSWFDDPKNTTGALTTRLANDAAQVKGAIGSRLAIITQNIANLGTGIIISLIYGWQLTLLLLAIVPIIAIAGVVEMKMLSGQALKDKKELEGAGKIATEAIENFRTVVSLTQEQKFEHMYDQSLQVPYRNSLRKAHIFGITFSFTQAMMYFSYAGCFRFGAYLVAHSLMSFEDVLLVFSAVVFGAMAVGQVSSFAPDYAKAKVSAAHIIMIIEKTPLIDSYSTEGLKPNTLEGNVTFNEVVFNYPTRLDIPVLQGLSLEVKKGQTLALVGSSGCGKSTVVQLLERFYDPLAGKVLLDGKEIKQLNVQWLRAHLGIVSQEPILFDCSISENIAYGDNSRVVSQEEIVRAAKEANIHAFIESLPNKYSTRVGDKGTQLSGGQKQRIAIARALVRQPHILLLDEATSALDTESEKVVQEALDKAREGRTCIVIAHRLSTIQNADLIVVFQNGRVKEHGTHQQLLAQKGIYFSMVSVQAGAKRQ
Molecule,binding to human MDR1 (hB1) [1],epitope on human MDR1 [2],ECD1 required for antibody binding to human ABCB1 [3],ECD4 required for antibody binding to human ABCB1 [3],binding to cynomolgus MDR1 (cB1) [4],inhibition of efflux of DIOC2 ([5]; 293T.hB1 cell line),inhibition of efflux of Rhodamine ([5]; 293T.hB1 cell line),inhibition of efflux of DIOC2 ([5]; MES-SA/Dx5 cells),inhibition of efflux of Rhodamine ([5]; MES-SA/Dx5 cells),inhibition of efflux of Calcein ([5]; cell line not given),"tumor volume / tumor growth, single agent [6]","tumor volume / tumor growth, in combination with paclitaxel [6]","tumor volume, single agent [7]","tumor volume, in combination with paclitaxel [7]",sensitization of MES-SA DX5 uterine sarcoma to paclitaxel [8],sensitization of MES-SA DX5 uterine sarcoma to paclitaxel ([6]; MES-SA DX5 tumors in vivo)
"B1.129: anti-MDR1 antibody, Mouse; VH SEQ ID NO:56, VL SEQ ID NO:60 (antibody, listed as Mus musculus, V domains shown) VH: EVQLQQSGPELVKPGASVKMSCKASGYTFSTYVIHWVKQKPGQGLEWIGYIYPYNDYTKYNEKFKDKATLTSDKSSSTAYMEIRSLTSEDSAVYYCSRAYYGNLVGYGVDYWGQGTSVTVSS VL: QIVLTQSPAILPASPGEKVTMTCRASSSVSFIYWYQQRPGSSPKPWIFATSNLASGVPARFSGSGSGTSYSLTISRVEAEDAATYYCHQWGSNLPTFGGGTKLEIK",binds,bind to an epitope comprising extracellular loop 1 and extracellular loop 4,requires,requires,binds,inhibited efflux,inhibited efflux,inhibited efflux,inhibited efflux,inhibited efflux of Calcein to a greater extent than the anti-MDR1 antibody 15D3,decreased tumor volume; also recorded: more effective in inhibiting tumor growth than 15D3 antibody,decreased tumor volume; also recorded: more effective in inhibiting tumor growth than 15D3 antibody,decreased tumor volume,decreased tumor volume,,
"B1.223: anti-MDR1 antibody, Mouse; VH SEQ ID NO:102, VL SEQ ID NO:104 (antibody, listed as Mus musculus, V domains shown) VH: EVKLVESGGALVKPGGSLKLSCAASGFTFSNYAMSWVRQTPEKRLEWVATISSGGSYTYYPDSVKGRFTISRDNAKTTLYLQMSGLRSEDTALYYCAKFSNYGRFASWGQGTLVTVSS VL: DIQMIQSPLSLPVSLGDQASISCRSSQSIVHSSGNTYLEWYLQKPGQSPRLLIYKVSNRFFGVPDRISGSGSGTDFTLRISRVEAEDLGVYYCFQGSHVPYTFGGGTKLELK",,bind to an epitope comprising extracellular loop 1 and extracellular loop 4,,,,,,,,,decreased tumor volume,decreased tumor volume,decreased tumor volume,decreased tumor volume,sensitizes,sensitized
